T1: hBCMA (human BCMA) (Homo sapiens, UniProt Q02223)
T1 sequence (Q02223 1-184): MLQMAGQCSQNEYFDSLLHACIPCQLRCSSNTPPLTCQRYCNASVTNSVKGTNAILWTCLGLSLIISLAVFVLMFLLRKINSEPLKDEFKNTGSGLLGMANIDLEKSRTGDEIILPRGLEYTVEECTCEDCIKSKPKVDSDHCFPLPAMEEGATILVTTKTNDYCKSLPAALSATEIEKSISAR


Key:
Cyno BCMA = assay: Kinetics and affinity of cyno BCMA/human IgG interactions by SPR (Bio-Rad Proteon XPR36); type: binding, cynomolgus; conditions: 37° C.
hBCMA (human BCMA) = biological target: T1, hBCMA (human BCMA); assay: Kinetics and affinity of hBCMA/human IgG interactions by SPR (Bio-Rad Proteon XPR36); type: binding; conditions: human BCMA, 37° C.
Procedure, shortened: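 Anti-BCMA IgGs were amine-coupled to a GLC chip at 25° C. BCMA analyte was run by kinetic titration at 0.08, 0.4, 2, 10 and 50 nM, with 2-minute associations and 2-hour dissociation, at 37° C. or 25° C. in HBS-T+ (pH 7.4) plus 1 mg/mL BSA. Double-referenced sensorgrams were fit to 1:1 Langmuir with mass transport.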

Row | Molecule | kd Cyno (Cyno BCMA) | ka Human (hBCMA (human BCMA)) | kd Human (hBCMA (human BCMA)) | Kd (Cyno BCMA) | Kd (hBCMA (human BCMA)) | ka Cyno (Cyno BCMA)
1 | C01_Rd4_6 nM_C20: anti-BCMA antibody (antibody, V domains shown) VH: EVQLLESGGGLVQPGGSLRLSCAASGFTFSSYPMSWVRQAPGKGLEWVSAIGGSGGSLPYADSVKGRFTISRDNSKNTLYLQMNSLRAEDTAVYYCARYWPMDSWGQGTLVTVSS VL: EIVLTQSPGTLSLSPGERATLSCRASQSVSPLYLAWYQQKPGQAPRLLIYDASSRAPGIPDRFSGSGSGTDFTLTISRLEPEDFAVYYCQQYSAFPLTFGQGTKVEIK | 0.00625 s⁻¹ | 6.02e+06 M⁻¹ s⁻¹ | 0.00276 s⁻¹ |  |  | 3.6e+06 M⁻¹ s⁻¹
2 | C01_Rd4_6 nM_C09: anti-BCMA antibody (antibody, V domains shown) VH: EVQLLESGGGLVQPGGSLRLSCAASGFTFSSYPMSWVRQAPGKGLEWVSATVGSGGSIGYADSVKGRFTISRDNSKNTLYLQMNSLRAEDTAVYYCARYWPMDSWGQGTLVTVSS VL: EIVLTQSPGTLSLSPGERATLSCACSQSVSSTYLAWYQQKPGQAPRLLIYDASSRAPGIPDRFSGSGSGTDFTLTISRLEPEDFAVYYCQQYSAWPLTFGQGTKVEIK | 0.00868 s⁻¹ | 1.58e+07 M⁻¹ s⁻¹ | 0.0128 s⁻¹ |  |  | 3.73e+06 M⁻¹ s⁻¹
3 | C01_Rd4_0.6 nM_C27: anti-BCMA antibody (antibody, V domains shown) VH: EVQLLESGGGLVQPGGSLRLSCAASGFTFSSYPMSWVRQAPGKGLEWVSAIGGSGGSLPYADSVKGRFTISRDNSKNTLYLQMNSLRAEDTAVYYCARYWPMDSWGQGTLVTVSS VL: EIVLTQSPGTLSLSPGERATLSCRASQSVSSTYLAWYQQKPGQAPRLLIYDASSRAPGIPDRFSGSGSGTDFTLTISRLEPEDFAVYYCQQYSRWPLTFGQGTKVEIK | 0.00285 s⁻¹ | 1.23e+07 M⁻¹ s⁻¹ | 0.00374 s⁻¹ |  |  | 3.34e+06 M⁻¹ s⁻¹
4 | C01_Rd4_6 nM_C24: anti-BCMA antibody (antibody, V domains shown) VH: EVQLLESGGGLVQPGGSLRLSCAASGFTFSSYPMSWVRQAPGKGLEWVSAIGGSGGSLPYADSVKGRFTISRDNSKNTLYLQMNSLRAEDTAVYYCARYWPMDSWGQGTLVTVSS VL: EIVLTQSPGTLSLSPGERATLSCRASQSVSPEYLAWYQQKPGQAPRLLIYDASSRAPGIPDRFSGSGSGTDFTLTISRLEPEDFAVYYCQQYSVWPLTFGQGTKVEIK | 0.000891 s⁻¹ | 7.47e+06 M⁻¹ s⁻¹ | 0.00348 s⁻¹ |  |  | 3.17e+06 M⁻¹ s⁻¹
5 | C01_Rd4_0.6 nM_C09: anti-BCMA antibody (antibody, V domains shown) VH: EVQLLESGGGLVQPGGSLRLSCAASGFTFSSYPMSWVRQAPGKGLEWVSAIGGSGGSLPYADSVKGRFTISRDNSKNTLYLQMNSLRAEDTAVYYCARYWPMDSWGQGTLVTVSS VL: EIVLTQSPGTLSLSPGERATLSCRASQSVSSLFLAWYQQKPGQAPRLLIYDASSRAPGIPDRFSGSGSGTDFTLTISRLEPEDFAVYYCQQYSAWPLTFGQGTKVEIK | 0.00936 s⁻¹ | 1.51e+07 M⁻¹ s⁻¹ | 0.00825 s⁻¹ |  |  | 5.28e+06 M⁻¹ s⁻¹
6 | C01_Rd4_6 nM_C26: anti-BCMA antibody (antibody, V domains shown) VH: EVQLLESGGGLVQPGGSLRLSCAASGFTFSSYPMSWVRQAPGKGLEWVSAIGGSGGSLPYADSVKGRFTISRDNSKNTLYLQMNSLRAEDTAVYYCARYWPMDSWGQGTLVTVSS VL: EIVLTQSPGTLSLSPGERATLSCRASQSVSALYLAWYQQKPGQAPRLLIYDASSRAPGIPDRFSGSGSGTDFTLTISRLEPEDFAVYYCQQYSAWPLTFGQGTKVEIK | 0.00199 s⁻¹ | 1.5e+07 M⁻¹ s⁻¹ | 0.00136 s⁻¹ |  |  | 4.75e+06 M⁻¹ s⁻¹
7 | C01_Rd4_6 nM_C10: anti-BCMA antibody (antibody, V domains shown) VH: EVQLLESGGGLVQPGGSLRLSCAASGFTFSSYPMSWVRQAPGKGLEWVSAIGGSGGSLPYADSVKGRFTISRDNSKNTLYLQMNSLRAEDTAVYYCARYWPMDSWGQGTLVTVSS VL: EIVLTQSPGTLSLSPGERATLSCRASQSVSSVYLAWYQQKPGQAPRLLIYDASSRAPGIPDRFSGSGSGTDFTLTISRLEPEDFAVYYCQQYSTWPLTFGQGTKVEIK | 0.00219 s⁻¹ | 1.31e+07 M⁻¹ s⁻¹ | 0.00212 s⁻¹ |  |  | 4.44e+06 M⁻¹ s⁻¹
8 | C01_Rd4_0.6 nM_C16: anti-BCMA antibody (antibody, V domains shown) VH: EVQLLESGGGLVQPGGSLRLSCAASGFTFSSYPMSWVRQAPGKGLEWVSAIGGSGGSLPYADSVKGRFTISRDNSKNTLYLQMNSLRAEDTAVYYCARYWPMDSWGQGTLVTVSS VL: EIVLTQSPGTLSLSPGERATLSCRASQSVSSTYLAWYQQKPGQAPRLLIYDASSRAPGIPDRFSGSGSGTDFTLTISRLEPEDFAVYYCQQYSSWPLTFGQGTKVEIK | 0.00464 s⁻¹ | 1.55e+07 M⁻¹ s⁻¹ | 0.0063 s⁻¹ |  |  | 4.95e+06 M⁻¹ s⁻¹

Further lines, with some results ahead:

Row | kd Cyno (Cyno BCMA) | ka Human (hBCMA (human BCMA)) | kd Human (hBCMA (human BCMA)) | Kd (Cyno BCMA) | Kd (hBCMA (human BCMA)) | Molecule | ka Cyno (Cyno BCMA)
9 | 0.00129 s⁻¹ | 3.1e+06 M⁻¹ s⁻¹ | 0.000308 s⁻¹ |  |  | A02_Rd4_6 nM_C05: anti-BCMA antibody (antibody, V domains shown) VH: EVQLLESGGGLVQPGGSLRLSCAASGFTFSSYAMNWVRQAPGKGLEWVSAIFASGGSTYYADSVKGRFTISRDNSKNTLYLQMNSLRAEDTAVYYCARYWPMTPWGQGTLVTVSS VL: EIVLTQSPGTLSLSPGERATLSCRASQSVSSSYLAWYQQKPGQAPRLLMYDASIRATGIPDRFSGSGSGTDFTLTISRLEPEDFAVYYCQQYQRWPLTFGQGTKVEIK | 1.36e+06 M⁻¹ s⁻¹
10 | 0.000831 s⁻¹ | 4.47e+06 M⁻¹ s⁻¹ | 0.000603 s⁻¹ | 381 pM | 135 pM | A02_Rd4_6 nM_C04: anti-BCMA antibody (antibody, V domains shown) VH: EVQLLESGGGLVQPGGSLRLSCAASGFTFSSYAMNWVRQAPGKGLEWVSAIMSSGGPLYYADSVKGRFTISRDNSKNTLYLQMNSLRAEDTAVYYCARYWPMALWGQGTLVTVSS VL: EIVLTQSPGTLSLSPGERATLSCRASQSVSALYLAWYQQKPGQAPRLLMYDASIRATGIPDRFSGSGSGTDFTLTISRLEPEDFAVYYCQQYQVWPLTFGQGTKVEIK | 2.18e+06 M⁻¹ s⁻¹
11 | 0.00256 s⁻¹ | 7.26e+06 M⁻¹ s⁻¹ | 0.000443 s⁻¹ |  |  | A02_Rd4_0.6 nM_C26: anti-BCMA antibody (antibody, V domains shown) VH: EVQLLESGGGLVQPGGSLRLSCAASGFTFSSYAMNWVRQAPGKGLEWVSAILMSGGSTYYADSVKGRFTISRDNSKNTLYLQMNSLRAEDTAVYYCARYWPMSLWGQGTLVTVSS VL: EIVLTQSPGTLSLSPGERATLSCGPSQSVSSSYLAWYQQKPGQAPRLLMYDASIRATGIPDRFSGSGSGTDFTLTISRLEPEDFAVYYCQQYQSWPLTFGQGTKVEIK | 2.71e+06 M⁻¹ s⁻¹
12 | 0.0538 s⁻¹ | 1.16e+07 M⁻¹ s⁻¹ | 0.0692 s⁻¹ |  |  | P5C1_VHVL: anti-BCMA antibody (antibody, V domains shown) VH: EVQLLESGGGLVQPGGSLRLSCAASGFTFSSYPMSWVRQAPGKGLEWVSAIGGSGGSTYYADSVKGRFTISRDNSKNTLYLQMNSLRAEDTAVYYCARYWPMDSWGQGTLVTVSS VL: EIVLTQSPGTLSLSPGERATLSCRASQSVSSTYLAWYQQKPGQAPRLLIYDASSRAPGIPDRFSGSGSGTDFTLTISRLEPEDFAVYYCQQYSTSPLTFGQGTKVEIK | 3.53e+06 M⁻¹ s⁻¹
13 | 0.00128 s⁻¹ | 8.53e+06 M⁻¹ s⁻¹ | 0.000566 s⁻¹ |  |  | A02_Rd4_0.6 nM_C13: anti-BCMA antibody (antibody, V domains shown) VH: EVQLLESGGGLVQPGGSLRLSCAASGFTFSSYAMNWVRQAPGKGLEWVSAISDSGGYRYYADSVKGRFTISRDNSKNTLYLQMNSLRAEDTAVYYCARYWPMSLWGQGTLVTVSS VL: EIVLTQSPGTLSLSPGERATLSCRASQSVSSSYWAWYQQKPGQAPRLLMYDASIRATGIPDRFSGSGSGTDFTLTISRLEPEDFAVYYCQQYESWPLTFGQGTKVEIK | 2.29e+06 M⁻¹ s⁻¹
14 | 0.00163 s⁻¹ | 2.3e+06 M⁻¹ s⁻¹ | 0.000296 s⁻¹ |  |  | A02_Rd4_0.6 nM_C10: anti-BCMA antibody (antibody, V domains shown) VH: EVQLLESGGGLVQPGGSLRLSCAASGFTFSSYAMNWVRQAPGKGLEWVSAISGWGGSLPYADSVKGRFTISRDNSKNTLYLQMNSLRAEDTAVYYCARYWPMDSWGQGTLVTVSS VL: EIVLTQSPGTLSLSPGERATLSCRASQSVSAQYLAWYQQKPGQAPRLLMYDASIRATGIPDRFSGSGSGTDFTLTISRLEPEDFAVYYCQQYQRWPLTFGQGTKVEIK | 883000 M⁻¹ s⁻¹
15 | 0.0113 s⁻¹ | 3.92e+06 M⁻¹ s⁻¹ | 0.000738 s⁻¹ | 5070 pM | 188 pM | A02_Rd4_6 nM_C08: anti-BCMA antibody (antibody, V domains shown) VH: EVQLLESGGGLVQPGGSLRLSCAASGFTFSSYAMNWVRQAPGKGLEWVSAILDSGGSTYYADSVKGRFTISRDNSKNTLYLQMNSLRAEDTAVYYCARYWPMSPWGQGTLVTVSS VL: EIVLTQSPGTLSLSPGERATLSCRASQSVSFLYLAWYQQKPGQAPRLLMYDASIRATGIPDRFSGSGSGTDFTLTISRLEPEDFAVYYCQQYGSWPLTFGQGTKVEIK | 2.23e+06 M⁻¹ s⁻¹
